US6482410B1, “Cytotactin derivatives that stimulate attachment and neurite outgrowth, and methods of making same” (The Scripps Research Institute, priority 1994, dated 2002)
Several values for one entry are separate records, joined by “and”; a condition that tells them apart may be missing. Equal values may be shown once. Entries after “also recorded” stand apart in the source; their conditions may differ.

B1: CTfg: CT:GST fusion protein, entire fibrinogen domain, residues 1570-1810 of SEQ ID NO 4 (protein)
chain: SMRSKMIQTVFTTTGLLYPYPKDCSQALLNGEVTSGLYTIYLNGDRTQPLQVFCDMAEDGGGWIVFLRRQNGKEDFYRNWKNYVAGFGDPKDEFWIGLENLHKISSQGQYELRVDLRDRGETAYAVYDKFSVGDAKTRYRLRVDGYSGTAGDSMTYHNGRSFSTFDKDNDSAITNCALSYKGAFWYKNCHRVNLMGRYGDNNHSQGVNWFHWKGHEYSIQFAEMKLRPSSFRNLEGRRKRA
modifications: left off: a dimerising Fc or GST
B2: CTfn6: CT:GST fusion protein, fibronectin type III repeat VI, residues 1318-1398 of SEQ ID NO 4 (protein)
chain: VVGSPKGISFSDITENSARVSWTPPRSRVDSYRVSYVPITGGTPNVVTVDGSKTRTKLVKLVPGVDYNVNIISVKGFEESE
modifications: left off: a dimerising Fc or GST
B3: CTfn3: CT:GST fusion protein, fibronectin type III repeat III, residues 774-864 of SEQ ID NO 4 (protein)
chain: LDAPSQIEAKDVTDTTALITWSKPLAEIEGIELTYGPKDVPGDRTTIDLSEDENQYSIGNLRPHTEYEYEVTLISRRGDMESDPAKEVFVT
modifications: left off: a dimerising Fc or GST

How the values were obtained:
[1] = test system: dorsal root ganglia (DRG) cells; test: Cell attachment assay, DRG neurons on protein-coated solid support; assay type: cell-based, chicken; conditions: short-term attachment assay
Method: (§1) Dorsal root ganglia (DRG) cells or forebrain neurons were prepared for the cell attachment assays as follows. DRG from day 6 chicken embryos or forebrains from day 7 chicken embryos were dissected into HBSS. The tissue was pelleted by centrifugation and resuspended in CMF-HBSS and incubated at 37° C. for 10 minutes. The tissue was pelleted again and resuspended in CMF-HBSS containing 0.08% trypsin and allowed to trypsinize for 20 minutes at 37° C. An equal volume of DMEM/F12, 10% FCS, 20 ng/ml nerve growth factor (NGF) (for DRG cells only), 10 μg/ml gentamycin (10% medium) was added, and the tissue was pelleted and resuspended in 2 ml of the 10% medium. The cells were triturated with a fire-polished Pasteur pipette for 15 strokes, and the cells were washed and resuspended in 10 ml of 10% medium. DRG cells were plated in a 10 cm tissue culture dish and incubated for 1 hour at 37° C. in 5% CO2, to allow for attachment of contaminating fibroblasts.
After replating, the cells were harvested, pelleted and washed three times in DMEM/F12, 1% fetal calf serum (FCS), 20 ng/ml NGF (for DRG cells only), 10 μg/ml gentamycin (1% medium), and the number of cells determined using a hemocytometer. The DRG were resuspended to a density of 6×10^5 cells/ml in attachment buffer. […]
Chicken fibroblasts, DRG, and solid supports (dishes) coated with CT for use in the cell attachment assays were prepared as described in Examples 5.A.2-4, respectively. […] The number of bound cells was determined using a 10× objective with an eyepiece reticle. The number of cells was determined in four fields for each fusion protein dot as the number of cells bound per […]. […] The number of cells bound for CT was expressed as the average of the twelve measurements±standard deviation […]. […]
Cell attachment assays were performed essentially as follows. […] The cells were then washed in attachment buffer (CMF-HBSS, 10 mM Hepes, 1 mM CaCl2, 1 mM MgCl2, 0.1 mM MnCl2, 2% BSA) three times, counted in a hemocytometer, resuspended to a density of 6×10^5 cells/ml. […]

[2] = test system: dorsal root ganglia (DRG) neurons; test: Two-dimensional neurite outgrowth assay, DRG, 15 hours; assay type: cell-based, chicken; conditions: 15 hours; for neurite promoting activity on DRG cells: low density; for % Sprouting / Neurite Length: Table 4, DRG; for % Sprouting: neurites greater than one cell diameter; for Neurite Length: per neurite-bearing cell; for Percent Sprouting / Neurite Length (in microns): Table 5, DRG; for Percent Sprouting: six experiments; for Neurite Length (in microns): three experiments
Method: as §1
(§2) After replating, the cells were harvested, pelleted and washed three times in DMEM/F12, 1% fetal calf serum (FCS), 20 ng/ml NGF (for DRG cells only), 10 μg/ml gentamycin (1% medium), and the number of cells determined using a hemocytometer. The DRG were resuspended to a density of 6×10^5 cells/ml in attachment buffer. The neurons were resuspended to a density of 2×10^4 cells/ml in 1% medium and added to substrates and placed at 37° C., 5% CO2 for 15 hours.
(§3) After the growth period, the dishes were gently rinsed with PBS to remove unbound cells, fixed with 1% glutaraldehyde, and viewed by phase contrast microscopy. Ten to forty cells were analyzed for each substrate. Cells were judged as neurite-bearing if the length of the processes was greater than one cell diameter. All cells with neurites were photographed with a 20× objective and total neurite length per neurite-bearing cell was derived from the photographic prints. Percentage of neuronal sprouting was calculated from at least six experiments. Neurite length was calculated from at least three experiments.
This extensive neurite outgrowth after 40 hours made quantitation of the percentage of neurite-bearing cells and neurite length difficult. To analyze quantitatively the effect of CT/TN fusion proteins on DRG neurite outgrowth, DRG cells were therefore plated at low density on CT/TN or CT/TN fragments and analyzed after 15 hours in culture for the percentage of cells that sprouted neurites greater than one cell diameter and for the everage neurite length per neuron. These conditions enhanced the number of isolated cells and discouraged the cell-cell interactions and fasciculation that occurred in the long-term cultures.
The proteins used in the neurite outgrowth assays are the same as those used in the cell attachment assays. […] In addition, poly-L-lysine was adsorbed to the solid support. […] Any cells adhering to the solid support were examined for sprouting and neurite length as defined herein.
Proteins used in the neurite outgrowth assays were prepared as described in Example 5.A.2.
Dorsal root ganglia (DRG) from day 6 chicken embryos were prepared as described in Example 5.A.4. For the neurite outgrowth assays, the DRG were resuspended at a density of 2×10^4 cells/ml in 1% medium, added to solid support, and placed at 37° C. in 5% CO2 for 15 hours. After the attachment and growth period, the dishes were gently rinsed with PBS to remove unbound cells, fixed with 1% (v/v) glutaraldehyde, and viewed by phase contrast microscopy. Ten to thirty cells were analyzed for each adsorbed protein spot. Cells were judged as neurite-bearing if the length of the processes were greater than one cell diameter. All cells with neurites were photographed with a 40× objective and the total neurite length per neurite-bearing cell was derived from the prints. The percent of cells that were sprouting and the average neurite length was derived from six and three independent experiments, respectively. […]

[3] = test system: DRG cells; test: DRG neurite outgrowth, 40 hour culture, morphology; assay type: cell-based, chicken; conditions: DRG cells cultured 40 hours
Method: In order to assess the effect to the cell binding regions of CT/TN on the outgrowth of neurites from PNS neurons, DRG cells were cultured for 40 hours on popylysine, CTfn3, CTfn6, CTfg, and CTfn3-CTfn6 mixed substrates. The cultures were then fixed and the cell and neurite morphology was analyzed by phase contrast microscopy. The cells were plated on plastic substrates coated with the same concentrations of CTITN and fusion proteins used in the attachment assay.

[4] = test system: neurons from chick forebrain; test: CNS neurite outgrowth, forebrain neurons, 7 hours; assay type: cell-based; conditions: 7 hour growth period; for % Sprouting: Table 4, FB (forebrain) neurons
Method: as §1, §2, §3
To investigate whether CNS neurons could also extend neurites on CT/TN and CT/TN fragments, neurons from chick forebrain were plated at low density on CT/TN, CT/TN fragments and polylysine, and analyzed for neurite outgrowth after a 7 hour growth period (a time period found to be optimal for stable neurite outgrowth from these cells). The lengths of neurites on substrates that supported sprouting were essentially the same for the forebrain neurons and were therefore not quantitated further.

Molecule | DRG neuron attachment to coated substrate (words) [1] | DRG neurite length versus polylysine ([2]; DRG) | percentage of neurite-bearing DRG cells versus polylysine ([2]; DRG) | neurite promoting activity on DRG cells ([2]; DRG) | % Sprouting [2] [%] | Neurite Length [2] [microns] | Percent Sprouting [2] | Neurite Length (in microns) [2] [microns] | neurite and cell morphology after 40 hours [3] | forebrain neuron sprouting versus polylysine [4] | % Sprouting [4] [%] | DRG neuron attachment to coated substrate (words) ([1]; listed as Ctfn6) | increase in number of neurite-bearing cells over polylysine ([2]; DRG) | forebrain cell attachment [4] | average neurite length relative to poly-L-lysine ([2]; DRG) [times]
B1 | able to support DRG neuron attachment; also recorded: attached well | not statistically different; also recorded: statistically indistinguishable | comparable | did show neurite promoting activity | 8 ± 3 | 82 ± 23 | 8 ± 3 | 83 ± 23 | basal level of outgrowth | not significantly different | 2.2 ± 0.5 | – | – | – | –
B2 | able to support DRG neuron attachment; also recorded: supports both fibroblast and neuronal cell attachment | not statistically different; also recorded: statistically indistinguishable | increase in neurite outgrowth over poly-L-lysine | did show neurite promoting activity | 31 ± 2 | 153 ± 124 | 31 ± 2 | 154 ± 124 | moderately long neurites | significant increase | 8.7 ± 1.9 | support fibroblast and neuronal cell attachment | 82% and 57% | promotes attachment | –
B3 | – | significantly longer | comparable; also recorded: the same as on poly-L-lysine | did show neurite promoting activity | 12 ± 2 | 260 ± 141 | 12 ± 2 | 260 ± 141 | long fasciculated processes | no effect on neurite outgrowth | 0 | – | – | did not support forebrain cell attachment | 3
